Assay results taken from article PMC6334735.

Target: TrkA
Assay: in situ PLA, anti-Trk plus anti-total IRS1
Conditions: sites Y608

Chain of IRS1 (P35570 whole entry, looked up, change not shown): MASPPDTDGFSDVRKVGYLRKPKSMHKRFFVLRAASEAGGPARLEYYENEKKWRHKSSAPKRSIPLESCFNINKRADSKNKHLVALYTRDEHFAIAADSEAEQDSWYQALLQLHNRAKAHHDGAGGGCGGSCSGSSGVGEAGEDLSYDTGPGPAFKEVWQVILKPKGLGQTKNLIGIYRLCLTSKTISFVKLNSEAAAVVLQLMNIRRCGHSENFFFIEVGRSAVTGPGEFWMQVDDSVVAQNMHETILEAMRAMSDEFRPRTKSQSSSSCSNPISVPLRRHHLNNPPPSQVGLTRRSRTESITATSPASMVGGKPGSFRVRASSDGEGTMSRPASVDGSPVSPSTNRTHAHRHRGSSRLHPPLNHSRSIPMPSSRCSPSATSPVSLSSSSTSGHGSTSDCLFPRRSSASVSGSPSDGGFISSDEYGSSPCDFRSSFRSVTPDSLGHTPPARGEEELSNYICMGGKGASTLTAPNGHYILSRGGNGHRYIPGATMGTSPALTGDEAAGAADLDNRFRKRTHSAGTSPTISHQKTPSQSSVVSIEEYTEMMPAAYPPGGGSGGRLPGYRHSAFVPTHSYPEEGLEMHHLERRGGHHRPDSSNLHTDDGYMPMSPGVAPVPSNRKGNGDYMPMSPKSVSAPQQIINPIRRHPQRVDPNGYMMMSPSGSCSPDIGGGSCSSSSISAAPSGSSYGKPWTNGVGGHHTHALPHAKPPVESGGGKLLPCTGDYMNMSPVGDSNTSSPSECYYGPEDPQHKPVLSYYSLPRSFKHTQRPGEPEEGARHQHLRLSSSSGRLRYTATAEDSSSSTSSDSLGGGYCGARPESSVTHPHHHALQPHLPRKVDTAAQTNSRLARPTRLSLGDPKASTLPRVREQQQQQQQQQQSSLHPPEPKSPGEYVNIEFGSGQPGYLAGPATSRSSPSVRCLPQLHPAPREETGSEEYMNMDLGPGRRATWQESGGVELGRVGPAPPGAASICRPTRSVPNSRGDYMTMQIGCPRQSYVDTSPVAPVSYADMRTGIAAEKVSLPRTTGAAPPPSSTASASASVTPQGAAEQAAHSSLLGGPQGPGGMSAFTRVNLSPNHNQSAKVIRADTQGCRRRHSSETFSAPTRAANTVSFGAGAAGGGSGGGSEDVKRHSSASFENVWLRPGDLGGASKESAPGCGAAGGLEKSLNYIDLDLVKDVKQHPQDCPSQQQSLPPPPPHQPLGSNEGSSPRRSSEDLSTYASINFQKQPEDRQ

Row | Substance | other: PLA dots per neuron (reference: untreated neurons (CTR)) | other: PLA dots per neuron (reference: NGF-treated neurons)
1 | IRS1 (from UniProt P35570) NGF 100 ng/ml, 30 min | stronger; reference 50.6 ± 5.9 | 
2 | IRS1 (from UniProt P35570) NGF after NT157 preincubation (10 µM, 2 h) |  | weaker; reference 121.5 ± 16.4
